From article PMC3656113

Tests used:
[1] = target: platelet activating factor receptor (PAFr) of 16HBE14 human bronchial epithelial cells (human (endogenous in 16HBE14)) (UniProt P25105)
[2] = target: recombinant human PAFr coupled to the G-protein Giα2β1γ2 (UniProt P25105); experiment: ELISA
[3] = target: recombinant human PAFr coupled to the G-protein Giα3β1γ2 (UniProt P25105); experiment: ELISA

pili of N. meningitidis strain 8013SBpptA8G (ChoP+) (natural protein)
> 2 fold: adherence of 8013SBpptA8G bacteria to Chem-1-PAFr cells, fold increase against 8013SB WT bacteria (fluorescence, 30 min) [1] | fold increase against pili of 8013SB WT [2] | fold increase against pili of 8013SB WT [3]
